Experimental findings from patent EP4545563A1, “ANTIBODIES TARGETING ITGA2 AND ANTIBODY-DRUG […]” (Foreseen Technology (Beijing) Co., Ltd., priority 2022, dated 2024) are described below.

The subject of assay [1] is A431. In words: ADC cancer cell killing, Cell-Titer-Glo 2.0. The assay is classed as cell-based, human. On the procedure:
(§1) Human bile duct cancer cells HuCC-T1 available from Zhejiang MeisenCTCC, human epidermal cancer cells A431 available from Procell Life Science&Technology Co.,Ltd. (Wuhan) and Chinese hamster ovary cells CHO from negative control ATCC were seeded into a 96-well plate at 2500 cells/well. It was then incubated in a 5% CO2 incubator overnight at 37°C. Half of the medium was removed from the cell plate on the next day. A 2x hIgG1 (negative control antibody, provided by Biointron), Vatelizumab, FS002-A1-vc-MMAE, FS002-A15-vc-MMAE, FS002-A36-vc-MMAE, Vatelizumab-ve-MMAE, hIgG1-vcMMAE (negative control ADC, provided by ChemPartner) was prepared with a complete culture medium, and then diluted at a 3-fold gradient with 11 specific concentration points in total. Serial dilutions of the above molecules were added to the appropriate wells, and it was then incubated in a 5% CO2 incubator for 5 days at 37°C. After the incubation, 100 uL of Cell-Titer-Glo 2.0 reagent was added to the 96-well plate. It was then well mixed on a plate shaker for 2 minutes, and finally equilibrated at room temperature for 10 minutes. Readings were taken using a microplate reader. Finally, IC50 was used to compare the biological activity of the ADC against each cell line.

For assay [2], the system named is HuCC-T1. In words: ADC cancer cell killing, Cell-Titer-Glo 2.0. The format is cell-based, human. The procedure:
as §1

Assay [3] relates to CHO. Put plainly: ADC cell killing in negative control cells, Cell-Titer-Glo 2.0. The assay is classed as cell-based, Chinese hamster. On the procedure: as §1
The mark [4] stands for this setting: result in words, summary of Table 9.

B1: Vatelizumab-ve-MMAE: antibody-drug conjugate of the positive control antibody Vatelizumab with vc-MMAE as the linker-payload (conjugate, chains of the INN, looked up)
VH: QVQLQESGPGLVKPSETLSLTCTVSGFSLTNYGIHWIRQPPGKGLEWLGVIWARGFTNYNSALMSRLTISKDNSKNQVSLKLSSVTAADTAVYYCARANDGVYYAMDYWGQGTLVTVSS
VL: DFVMTQSPAFLSVTPGEKVTITCSAQSSVNYIHWYQQKPDQAPKKLIYDTSKLASGVPSRFSGSGSGTDYTFTISSLEAEDAATYYCQQWTTNPLTFGQGTKVEIK
modifications: vc-MMAE payload
Regarding B1, the IC50 (as a rule, the point on the concentration scale where inhibition reaches its midpoint) was 0.08 nM in assay [1] (human epidermal cancer cells A431, incubated 5 days at 37°C); 0.89 nM in assay [2] (Human bile duct cancer cells HuCC-T1, incubated 5 days at 37°C); more than 207 nM in assay [3] (negative control cells CHO, incubated 5 days at 37°C). Further, the “killing effect on A431” value in assay [1] (setting [4]) is recorded as “good killing effect”. Further, in assay [2] (setting [4]), the “killing effect on HuCC-T1” value is recorded as “good killing effect”. For the same molecule, in assay [3] (setting [4]), the “killing effect on negative control cells CHO” value was “no killing effect”.
